PMC12160025, “Limitations of the radiotheranostic concept in neuroendocrine tumors due to lineage-dependent somatostatin receptor expression on hematopoietic stem and progenitor cells” (Theranostics, 2025)
Positions of bridges follow the written chain, without caps; N, C: chain ends. Non-standard residues stand in square brackets, D forms with d. Residues, ends and D or L forms follow the SMILES beside them. *: point of attachment. DOTA = O=C(O)CN1CCN(CC(=O)O)CCN(CC(=O)*)CCN(CC(=O)O)CC1; dPhe(4-NHCONH2) = NC(=O)Nc1ccc(C[C@@H](N)C(=O)O)cc1; Dihydroorotyl(S) = O=C1C[C@@H](C(=O)*)NC(=O)N1; Phe(4-Cl) = N[C@@H](Cc1ccc(Cl)cc1)C(=O)O; Phe(4-NH2) = Nc1ccc(C[C@H](N)C(=O)O)cc1

What was measured:
[1] = human, in vivo; cited from earlier work
[2] = human, in vivo; cited from earlier work; remark: listed apart in the source
[3] = system: human CD34+ HSPC subpopulations; test: Cell proliferation (CellTrace Violet) and cell death after radioligand treatment; assay type: cell-based; settings: 50 kBq/well, 4 days
Experimental: BMMCs were thawed in 90% IMDM with GlutaMAX, 10% FBS, and 20 µg/ml DNAse. Cells were washed and resuspended in cold FACS buffer for CD34+ isolation using the Miltenyi Biotec CD34 MicroBead Kit (#130-046-702) as per manufacturer instructions. CellTrace™ Violet (CTV, Thermo Scientific, C34557) staining was conducted based on the CD34^+ cell count (0.05 µl CTV/ml/ 1,500,000 cells) to determine the number of divisions undergone by a cell at the time of analysis. Following a 20 min incubation at 37 °C, the cells were centrifuged and resuspended in serum-free medium composed of IMDM with GlutaMAX and 20% BIT9500 (Stem Cell Technologies, 09500) supplemented with three cytokines involved in stem cell maintenance: SCF (50 ng/ml, PeproTech, 300-07), TPO (12.5 ng/ml, PeproTech, 300-18), andFlt3-L (50 ng/ml, PeproTech, 300-19). 30,000 cells were seeded in 24-well plates and analyzed by flow cytometry either immediately (day 0) or after a 4-day incubation period at 37 °C with 5% CO2 (day 4) following 30 min antibody staining and additional 15 min Annexin V (APC) binding (Biolegend, 640920). The antibodies used were as follow: CD34-APC-Cy7 (Biolegend, 343514), CD38-FITC (Biolegend, 356610), CD90-PE-Cy5 (Biolegend, 328112), CD123-PE (Biolegend, 306006), CD45RA-PE-Cy7 (Biolegend, 202316).
For radioligand treatment, cells were treated with 50 kBq/well (500 µl/well; 200 MBq/nmol) of^ 177Lu-DOTA-TOC or ^177Lu-DOTA-JR11 for the entire incubation period of 4 days. […] Untreated cells served as controls. A total of n=16 samples were analyzed.
In this experiment, flow cytometry was conducted on a Miltenyi MACSQuant analyzer equipped with three lasers - blue (488 nm, 30 mW), red (640 nm, 20mW), and violet (405 nm, 40 mW). For each sample, 50,000 events were recorded. MACSQuantify™ Software was used for data acquisition and Flowjo 9.0-10.10 (BD Biosciences, USA) was employed for flow cytometric data analysis. […] To simplify the comparison between groups, we calculated a “proliferation score” per sample. The proliferation score was defined as the weighted sum of all proliferations using the formula: "Proliferation score = 1*(% one division) + 2*(% two divisions) + 3*(% three division) + 4*(% four division) + 5*(% five divisions) + 6*(% six division) + 7* (% > six divisions). A higher weighted sum indicated more cell proliferation events.

[4] = high-sensitivity samples (n = 8)

## C[C@@H](O)[C@@H]1NC(=O)[C@H](CCCCN)NC(=O)[C@@H](Cc2ccc(NC(N)=O)cc2)NC(=O)[C@H](Cc2ccc(NC(=O)[C@@H]3CC(=O)NC(=O)N3)cc2)NC(=O)[C@H](NC(=O)[C@H](Cc2ccc(Cl)cc2)NC(=O)CN2CCN(CC(=O)O)CCN(CC(=O)O)CCN(CC(=O)O)CC2)CSSC[C@@H](C(=O)N[C@H](Cc2ccc(O)cc2)C(N)=O)NC1=O [^177Lu-DOTA-JR11, metal not drawn] ({DOTA}-[Phe(4-Cl)][dC][Phe(4-NH2)](Dihydroorotyl(S))[dPhe(4-NHCONH2)]KTC[dY]-NH2; disulfide 2-7 (inferred); C-terminus assumed)
[1]
  Incidence of t-MN: 5%
  Patients with t-MN: 2/40
[2]
  Patients with prolonged grade 4 hematotoxicity: 4 of 7
[3]; HSPC subpopulations
  Cell death compared to untreated cells: highest rates of cell death
[3]; n = 16, all HSPC subpopulations
  Proliferation compared to untreated cells, across all subpopulations: 69-79%
[3]; [4]
  Proliferation in HSC relative to untreated, mean ± SD: 42 ± 17%
  Proliferation in HSC relative to untreated, median: 44%
